In PMC5663475, “SAV1 promotes Hippo kinase activation through antagonizing the PP2A phosphatase STRIPAK” (eLife, 2017):
Blank lines part the entries; values can stand above or below the molecule they belong to. Non-standard residues stand in square brackets, D forms with d. Residues, ends and D or L forms follow the SMILES beside them. pT = C[C@@H](OP(=O)(O)O)[C@H](N)C(=O)O

What was measured:
MOB1^33-216 = biological target: T1, MOB1^33-216 (Homo sapiens, UniProt Q9H8S9); assay: ITC, MOB1^33-216 with phospho-MST2 peptides; format: binding; conditions: MicroCal iTC200, 20 °C, 20 mM Tris pH 8.0, 50 mM NaCl, 50 µM protein titrated with 500 µM peptide, measured as controls
T1 construct: recombinant MOB1^33-216 and pT378-MST2 peptides
T1 sequence (Q9H8S9 33-216): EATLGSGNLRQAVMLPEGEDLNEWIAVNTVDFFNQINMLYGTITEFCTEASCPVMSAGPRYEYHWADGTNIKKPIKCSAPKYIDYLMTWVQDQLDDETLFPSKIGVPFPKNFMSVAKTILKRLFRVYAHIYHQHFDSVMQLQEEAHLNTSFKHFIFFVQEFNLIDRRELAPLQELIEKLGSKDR
Method: The binding affinities between purified recombinant human SLMAP-FHA (residues 1–140) and the phospho-MST2 peptides were measured using a MicroCal iTC200 calorimeter (GE Healthcare) at 20 °C. The binding affinities between recombinant MOB1^33-216 and pT378-MST2 peptides were measured as controls. Ratio of protein to peptide concentration was 1:10 for each experiment. A 50 µM SLMAP-FHA or MOB1^33-216 sample in the buffer containing 20 mM Tris, pH 8.0, 50 mM NaCl was titrated with 500 µM of phospho-MST2 peptide in the same buffer. All phospho-MST2 peptides were synthesized with the following sequences: pT325-MST2^320-329, ELDSHpTMVKT; pT336-MST2^331-340, VESVGpTMRAT; pT378-MST2^373-382, EEEDGpTMKRN; and pT378-MST2^371-401, DEEEEDGp[…]. Due to low solubility of pT325-MST2^320-329, 5% (v/v) DMSO was added to both protein and peptide buffers. Peptide concentration was measured using the spectrophotometer at wavelength λ = 205 nm. In all cases, thermograms were integrated using NITPIC method ([Keller et al., 2012]), imported to the SEDPHAT software ([Zhao et al., 2015]), and binding-model fits (A + B < ->AB) were made by fixing the protein concentration adjustment coefficients and allowing the software to adjust peptide concentration by a correction coefficient, as it is not 100% accurate due to the nature of the concentration measurements. […]

human SAV1 WW2 (human) = human SAV1 WW2 (human) (UniProt Q9H4B6); assay: SEC; recombinant SAV1 WW1 and WW2 on a Superdex 75 gel filtration column
SLMAP = SLMAP (UniProt Q14BN4); assay: anti-FLAG IP, anti-SLMAP blot; conditions: reference: MST2 wild type; sites T325,T336,T378
[1] = biological target: T2, MST2-FL (recombinant full-length MST2) (human, UniProt Q13188 1-491); assay: pull-down; GST-SLMAP FHA on glutathione-Sepharose beads as bait, purified MST2 proteins in TBS (50 mM Tris pH 7.5, 150 mM NaCl) with 0.05% Tween, 2 h; Coomassie-stained gel; conditions: both partners purified
T2 construct: MST2, human, full length; also called full-length (FL) MST2; source: E. coli BL21 (DE3)-T1R, purified; alone or co-expressed and co-purified with SAV1 C-terminal fragments
T2 sequence (looked up): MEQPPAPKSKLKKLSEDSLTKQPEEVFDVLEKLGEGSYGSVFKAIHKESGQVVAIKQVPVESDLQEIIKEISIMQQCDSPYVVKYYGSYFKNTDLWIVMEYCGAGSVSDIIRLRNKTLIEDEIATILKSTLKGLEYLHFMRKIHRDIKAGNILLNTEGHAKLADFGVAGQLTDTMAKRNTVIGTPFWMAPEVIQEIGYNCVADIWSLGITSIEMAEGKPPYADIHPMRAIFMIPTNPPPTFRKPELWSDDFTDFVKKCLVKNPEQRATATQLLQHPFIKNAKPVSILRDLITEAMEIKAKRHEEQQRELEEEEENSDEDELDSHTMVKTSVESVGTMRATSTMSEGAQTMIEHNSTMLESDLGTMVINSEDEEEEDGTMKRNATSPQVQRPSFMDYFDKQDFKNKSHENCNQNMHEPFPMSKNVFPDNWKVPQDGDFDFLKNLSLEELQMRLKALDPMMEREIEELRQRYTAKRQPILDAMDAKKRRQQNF

[2] = biological target: the molecule itself; assay: AUC + SEC; sedimentation velocity at 4 °C, 50,000 rpm, 20 mM Tris pH 8.0, 200 mM NaCl, 5 mM MgCl2; gel filtration on Superdex 200; co-expressed and co-purified MST2-FL/SAV1 fragment complexes
MST2 [3] = assay: MST2-SAV1 autophosphorylation (pT180); format: biochemical, human; conditions: 2.5 µM MST2-SAV1 complex, dephosphorylated by 0.5 µM PP2A A-C, then 5 µM okadaic acid; 2 mM ATP, anti-pT180 blot; at least two independent experiments
Method: For assaying MST2-SAV1 autophosphorylation, 2.5 µM MST2-SAV1-ΔN198 or MST2-SAV1-ΔN268 was dephosphorylated by 0.5 µM PP2A A-C core complex for 30 min at room temperature. Okadaic acid was then added to a final concentration of 5 µM and the reaction mixture was incubated on ice for another 30 min. The reaction mixture was diluted by a ratio of 1:5 at room temperature with a kinase reaction buffer containing 50 mM Tris (pH 7.5), 150 mM NaCl, 5 mM MgCl2, 2 mM ATP, and 1 mM DTT. At different time intervals, autophosphorylation was terminated by adding 2X SDS loading buffer and boiling for 5 min in 100 °C water bath. All samples were separated by SDS-PAGE and blotted by a specific antibody against pT180 of MST2.

MST2 [4] = assay: In vitro MST2 kinase assay using MOB1 as substrate; format: biochemical, human; conditions: 0.5 nM MST2, 0.4 µM MOB1, pT35-MOB1 quantitative Western blot; two biological replicates
Method: For in vitro kinase assays, 0.4 μM MST2-FL or MST2-ΔL was incubated in the kinase reaction buffer containing 50 mM Tris (pH 7.5), 150 mM NaCl, 10 mM MgCl2, 1 mM ATP, 1 mM DTT, and 0.1 μCi/μl γ-^32P-ATP with 40 μM myelin basic protein (MBP). At different time intervals, an aliquot of reaction mixture was added with equal volume of 2X SDS sample buffer and followed by boiling for 5 min in 100 °C water bath. All samples were separated by SDS-PAGE and analyzed by autoradiography. For in vitro kinase assays using MOB1 as substrate, 0.5 nM MST2 was incubated with 0.4 µM recombinant purified MOB1 in the kinase reaction buffer. The phosphorylated MOB1 was analyzed by quantitative Western blotting using a specific antibody against pT35 of MOB1 (Cell Signaling). The signals were quantified with the Odyssey LI-COR imaging system. For in vitro kinase assays using GST-MST2 D146N as substrate, the kinase reaction was performed with MST2 KD for 30 min at room temperature.

[5] = biological target: PP2A A subunit (recombinant) (human) (UniProt P30153)
PP2A A subunit = assay: Gel filtration co-fractionation of SAV1^1-90 with PP2A A subunit; format: binding; conditions: Superdex 200 gel filtration; PP2A A : SAV1^1-90 1:6 molar ratio; 20 mM Tris pH 8.0, 50 mM NaCl, 1 mM TCEP
Method: The N-terminal fragment of SAV1^1-90 was purified by denaturation method using 8 M urea according to the manufacturer’s instructions (Qiagen). SAV1^1-90 was refolded overnight at 4°C in a buffer containing 50 mM Tris (pH 7.5), 150 mM NaCl, 5 mM MgCl2, and 1 mM DTT. To obtain the PP2A A and SAV1^1-90 complex, PP2A A was mixed with refolded SAV1^1-90 at a 1:6 molar ratio and further purified by a Superdex 200 column equilibrated with a buffer containing 20 mM Tris (pH 8.0), 50 mM NaCl, and 1 mM TCEP. For comparison, PP2A A and SAV1^1-90 alone was run under the same condition, respectively.

PP2A A-C = assay: In vitro PP2A inhibition assay (dephosphorylation of MST2 pT180); format: biochemical; conditions: 0.1 µM PP2A A-C, 1 µM MST2 KD, quantitative Western blot
Method: For PP2A A-C phosphatase inhibition assays, 0.1 µM PP2A A-C was mixed with the indicated concentrations of SAV1^1-90 and incubated at room temperature for 15 min. […] After 30 min incubation, 15 µl reaction mixture was quenched by the addition of the same volume of 2X SDS sample buffer and boiled for 5 min. The remaining pT180 of MST2 was analyzed by quantitative Western blot using a specific antibody against pT180 of MST2.

Sequence of PP2A A subunit (recombinant) (human) (P30153 whole entry): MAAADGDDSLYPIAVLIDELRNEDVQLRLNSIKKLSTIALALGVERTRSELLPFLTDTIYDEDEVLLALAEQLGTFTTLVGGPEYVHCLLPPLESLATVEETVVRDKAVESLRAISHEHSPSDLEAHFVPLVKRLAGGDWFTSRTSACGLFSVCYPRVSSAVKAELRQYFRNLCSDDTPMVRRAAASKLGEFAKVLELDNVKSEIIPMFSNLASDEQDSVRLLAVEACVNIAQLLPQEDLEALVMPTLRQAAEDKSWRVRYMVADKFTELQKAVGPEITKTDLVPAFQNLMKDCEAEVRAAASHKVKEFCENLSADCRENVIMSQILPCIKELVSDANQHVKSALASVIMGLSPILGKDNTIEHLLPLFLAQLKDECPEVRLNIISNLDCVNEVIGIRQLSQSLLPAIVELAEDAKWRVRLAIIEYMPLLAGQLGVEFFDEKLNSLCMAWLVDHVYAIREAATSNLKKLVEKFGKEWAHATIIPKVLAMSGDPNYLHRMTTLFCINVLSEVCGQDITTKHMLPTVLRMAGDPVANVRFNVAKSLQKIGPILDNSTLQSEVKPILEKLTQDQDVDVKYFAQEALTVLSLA

Molecule: MST2 (from UniProt Q13188) MST2 3TA
binding against the reference (SLMAP): lost

B2: SAV1-ΔN198 (domain or fragment, human, UniProt Q9H4B6 199-383, looked up)
chain: LPLPPGWSVDWTMRGRKYYIDHNTNTTHWSHPLEREGLPPGWERVESSEFGTYYVDHTNKKAQYRHPCAPSVPRYDQPPPVTYQPQQTERNQSLLVPANPYHTAEIPDWLQVYARAPVKYDHILKWELFQLADLDTYQGMLKLLFMKELEQIVKMYEAYRQALLTELENRKQRQQWYAQQHGKNF
notes: SAV1, human, N-terminal 198 residues deleted (WW1, WW2 and SARAH domains); also called SAV1 ∆N198; SAV1 fragment containing both WW domains and the SARAH domain; source: E. coli BL21 (DE3)-T1R, co-expressed with MST2, purified (glutathione-Sepharose, TEV, Superdex 200); not shown: GST, N-terminal, cleaved
binding result [2]: binds

B3: SAV1 ∆N198: SAV1 mutant which contains WW1/2 and SARAH domains (protein)
chain: LPLPPGWSVDWTMRGRKYYIDHNTNTTHWSHPLEREGLPPGWERVESSEFGTYYVDHTNKKAQYRHPCAPSVPRYDQPPPVTYQPQQTERNQSLLVPANPYHTAEIPDWLQVYARAPVKYDHILKWELFQLADLDTYQGMLKLLFMKELEQIVKMYEAYRQALLTELENRKQRQQWYAQQHGKNF
modifications: left off: GST, N-terminal, cleaved
notes: SAV1 mutant which contains WW1/2 and SARAH domains
MST2 activation (T180 autophosphorylation) in vitro (MST2 [3]): could support MST2 auto-activation | stimulation of MST2 kinase activity toward MOB1 (MST2 [4]): did not stimulate the MST2 kinase activity toward MOB1

B5: SAV1 1–90: N-terminal fragment of SAV1 (residues 1–90), recombinant, refolded (protein)
chain: MLSRKKTKNEVSKPAEVQGKYVKKETSPLLRNLMPSFIRHGPTIPRRTDICLPDSSPNAFSTSGDVVSRNQSFLRTPIQRTPHEIMRRES
modifications: left off: FLAG, end not stated, kept
co-fractionation with recombinant PP2A A subunit (PP2A A subunit): co-fractionated | inhibition of PP2A A-C dephosphorylation of MST2 pT180 (PP2A A-C; 15 min pre-incubation with SAV1^1-90 at room temperature, 20 mM Tris pH 8.0, 100 mM NaCl, 30 min): blocked the dephosphorylation of MST2 pT180 by PP2A A-C | concentration needed for PP2A A-C inhibition (PP2A A-C; "Very high and non-physiological concentrations" needed): 100 µM

More lines, now with the values ahead:

Kd (MOB1^33-216): 9.95 µM
Molecule: CSCC[C@H](NC(=O)[C@@H](NC(=O)CNC(=O)[C@H](CC(=O)O)NC(=O)[C@H](CCC(=O)O)NC(=O)[C@H](CCC(=O)O)NC(=O)[C@@H](N)CCC(=O)O)[C@@H](C)OP(=O)(O)O)C(=O)N[C@@H](CCCCN)C(=O)N[C@@H](CCCNC(=N)N)C(=O)N[C@@H](CC(N)=O)C(=O)O [pT378-MST2^373-382] (H-EEEDG[pT]MKRN-OH)

stoichiometry N (human SAV1 WW2 (human)): 2
Molecule: human SAV1 WW2 (from UniProt Q9H4B6 1-383) (domain or fragment)

Kd (MOB1^33-216): 0.296 µM
Molecule: CSCC[C@H](NC(=O)[C@H](Cc1ccccc1)NC(=O)[C@H](CO)NC(=O)[C@@H]1CCCN1C(=O)[C@H](CCCNC(=N)N)NC(=O)[C@H](CCC(N)=O)NC(=O)[C@@H](NC(=O)[C@H](CCC(N)=O)NC(=O)[C@@H]1CCCN1C(=O)[C@H](CO)NC(=O)[C@@H](NC(=O)[C@H](C)NC(=O)[C@H](CC(N)=O)NC(=O)[C@H](CCCNC(=N)N)NC(=O)[C@H](CCCCN)NC(=O)[C@H](CCSC)NC(=O)[C@@H](NC(=O)CNC(=O)[C@H](CC(=O)O)NC(=O)[C@H](CCC(=O)O)NC(=O)[C@H](CCC(=O)O)NC(=O)[C@H](CCC(=O)O)NC(=O)[C@H](CCC(=O)O)NC(=O)[C@@H](N)CC(=O)O)[C@@H](C)OP(=O)(O)O)[C@@H](C)O)C(C)C)C(=O)N[C@@H](CC(=O)O)C(=O)N[C@@H](Cc1ccc(O)cc1)C(=O)N[C@@H](Cc1ccccc1)C(=O)N[C@@H](CC(=O)O)C(=O)N[C@@H](CCCCN)C(=O)N[C@@H](CCC(N)=O)C(=O)N[C@@H](CC(=O)O)C(=O)O [pT378-MST2^371-401] (H-DEEEEDG[pT]MKRNATSPQVQRPSFMDYFDKQD-OH)

binding result [1]: binds
B1: GST-SLMAP FHA (residues 1–140) (domain or fragment, human, UniProt Q14BN4 1-140, looked up)
chain: MPSALAIFTCRPNSHPFQERHVYLDEPIKIGRSVARCRPAQNNATFDCKVLSRNHALVWFDHKTGKFYLQDTKSSNGTFINSQRLSRGSEESPPCEILSGDIIQFGVDVTENTRKVTHGCIVSTIKLFLPDGMEARLRSD
notes: SLMAP, human, FHA domain, residues 1-140; also called GST-SLMAP FHA fusion protein; not shown: GST, N-terminal, kept

dephosphorylation of MST2 pT180 (1 µM MST2 kinase domain) by 0.1 µM PP2A A-C core in vitro, SAV1 1-90 at the indicated concentrations [5]: 100 µM
B4: SAV1^1-90 (recombinant) (domain or fragment)
chain: MLSRKKTKNEVSKPAEVQGKYVKKETSPLLRNLMPSFIRHGPTIPRRTDICLPDSSPNAFSTSGDVVSRNQSFLRTPIQRTPHEIMRRES
